Measured values reported in patent publication US20040072240A1.

Target: HLA A2.1 molecule (human)
Assay: T2 cells, flow cytometry; P1Y variant against its natural peptide

Substance: P1Y variant of gp100 209 (peptide)
- DC50 Y1-DC50 WT: 2 h
- RA WT/RA Y1: 1.7
